{
  "source": "paper PMC7761469",
  "target": "epidermal growth factor receptor (EGFR) (human (endogenous in LNCaP, DU145 and PC-3)) (UniProt P00533)",
  "assay": "flow cytometry on cells",
  "data": [
    {"substance": "targeted toxin EGF-PE40", "values": [
      {"measurement": "fold reduction of binding compared to EGF", "result": "28.6 to 76.1", "unit": "fold"}
    ]}
  ]
}
